This is an account of results in article PMC10314698.

The assay addresses soluble BCMA (B-cell maturation antigen) (UniProt Q02223). As to the kind of experiment: SPR.

soluble BCMA (B-cell maturation antigen), sequence (Q02223 1-54): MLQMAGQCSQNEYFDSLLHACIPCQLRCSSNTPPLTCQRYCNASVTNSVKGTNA

Usually Kd stands for the constant that tells how readily two partners part at equilibrium. Low readings indicate higher affinity, high ones lower affinity. In general, koff refers to the first-order rate constant of dissociation. A high value points to fast dissociation. In turn, LCAR-B38M (Nanjing_GSI5022_Dual_VHH) yielded a Kd of 2.89 nM and a koff of 0.0162 s⁻¹.
